Source: US20090004190A1, “Rage Fusion Proteins And Methods Of Use” (priority 2006, published 2009)
Values joined by “and” are separate entries in the source; they are usually repeats but may differ in a detail not shown here. Identical values can stand only once.

Legend:
S100b (S100) = biological target: T1, S100b (S100) (Homo sapiens, UniProt P04271); assay: In vitro ligand binding (ELISA) to immobilized S100b; details: ligand 5 micrograms per well; FIG. 7
T1 sequence (P04271 1-92): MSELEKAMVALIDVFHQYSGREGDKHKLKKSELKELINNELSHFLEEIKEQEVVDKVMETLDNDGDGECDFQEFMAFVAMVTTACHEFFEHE
Protocol: (§1) For example, the RAGE fusion protein may be used in a binding assay to identify potential RAGE ligands. In one example embodiment of such a binding assay, a known RAGE ligand may coated onto a solid substrate (e.g., Maxisorb plates) at a concentration of about 5 micrograms per well, where each well contains a total volume of about 100 microliters (μL). The plates may be incubated at 4° C. overnight to allow the ligand to absorb. Alternatively, shorter incubation periods at higher temperature (e.g., room temperature) may be used. […] The RAGE fusion protein bound to the immobilized ligand may be detected in a variety of ways. […] The bound complex may be detected by adding the alkaline phosphatase substrate, para-nitrophenylphosphate (PNPP), and measuring conversion of PNPP to para-nitrophenol (PNP) as an increase in absorbance at 405 nm. […] In the absence of ligand (i.e., coating with only BSA) there was no increase in absorbance. […] Binding was detected by the addition of an immunodetection complex containing a monoclonal mouse anti-human IgG1 diluted 1:11,000 to a final assay concentration (FAC) of 21 ng/100 μL, a biotinylated goat anti-mouse IgG diluted 1:500, to a FAC of […], and an avidin-linked alkaline phosphatase. […]

amphoterin (Ampho) = biological target: T2, amphoterin (Ampho) (Homo sapiens, UniProt P09429); assay: In vitro ligand binding (ELISA) to immobilized amphoterin; details: ligand 5 micrograms per well; FIG. 7
T2 sequence (P09429 1-215): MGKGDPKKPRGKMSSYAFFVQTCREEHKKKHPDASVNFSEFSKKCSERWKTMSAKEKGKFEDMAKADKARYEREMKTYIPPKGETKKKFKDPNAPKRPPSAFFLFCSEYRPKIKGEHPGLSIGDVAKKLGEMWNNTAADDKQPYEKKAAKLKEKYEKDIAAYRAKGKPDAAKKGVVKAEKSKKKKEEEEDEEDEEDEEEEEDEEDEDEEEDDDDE
Protocol: as §1

[1] = system: recurrent diabetes in NOD/LtJ mice with syngeneic islet transplants; assay: Syngeneic islet transplantation in diabetic NOD mice; assay type: in vivo, mouse; details: 300 ug LD + 100 ug qod ip
Description: Spontaneous autoimmune non-obese diabetic mice (NOD/LtJ) (12-25 weeks old) served as recipients for islet cells, while young pre-diabetic NOD/LtJ mice (6-7 weeks old) served as donors in syngeneic islet transplantation. Islets for transplantation were isolated as described above in Section A (Allogeneic Islet Transplantation).
Diabetic NOD/LtJ mice received islet grafts within 2 days of the diagnosis of diabetes. 500-600 freshly isolated islets (approximately 550 islet equivalents) from donor mice were picked up with an infusion set and transplanted into the subcapular space of the right kidney.
Test compounds were administered as soon as the islets were transplanted and continued for approximately 8 weeks.
Islet graft function was monitored by serial blood glucose measurements daily for the first 2 weeks after islet transplantation, followed by every other day thereafter. Reversal of diabetes was defined as blood glucose less than 200 mg/dl on two consecutive measurements. Percentage graft loss was determined when blood glucose exceeded 250 mg/dl on two consecutive measurements.

[2] = biological target: T3, amyloid-beta (Abeta) (Amyloid Beta (1-40)) (Homo sapiens, UniProt P05067); assay: In vitro ligand binding (ELISA) to immobilized amyloid-beta; details: ligand 5 micrograms per well; FIG. 7
T3 construct: Amyloid Beta (1-40) from Biosource; purchased Biosource
Protocol: as §1

[3] = system: transgenic mice expressing human Swedish mutant APP; assay: Mouse model of AD (APP transgenic mice): amyloid deposition and Morris water maze; assay type: in vivo; details: treated for 3 months, vs vehicle and human IgG1
Protocol: Experiments were performed to evaluate whether TTP-4000 could affect amyloid formation and cognitive dysfunction in a mouse model of AD. The experiments utilized transgenic mice expressing the human Swedish mutant amyloid precursor protein (APP) under the control of the PDGF-B chain promoter. Over time, these mice generate high levels of the RAGE ligand, amyloid beta (Aβ).
The APP mice (male) used in this experiment were designed by microinjection of the human APP gene (with the Swedish and London mutations) into mouse eggs under the control of the platelet-derived growth factor B (PDGF-B) chain gene promoter. The mice were generated on a C57BL/6 background and were developed by Molecular Therapeutics Inc. Animals were fed ad libitum and maintained by brother sister mating. The mice generated from this construct develop amyloid deposits starting at 6 months of age. Animals were aged for 6 months and then maintained for 90 days and sacrificed for amyloid quantification.
APP transgenic mice were administered vehicle or TTP4000 every other day [qod (i.p.)] for 90 days starting at 6 months of age. At the end of the experiment, animals were sacrificed and examined for Aβ plaque burden in the brain (i.e., plaque number). A 6-month control APP group was used to determine the baseline of amyloid deposits. In addition, at the end of the study, the animals were subjected to behavioral (Morris water maze) analysis. The investigators were blinded to the study compounds. Samples were given to the mice at 0.25 ml/mouse/every other day.
For histological examination, the animals were anesthetized with an intraperitoneal injection (IP) of sodium pentobarbital (50 mg/kg). The animals were transcardially perfused with 4° C., phosphate-buffered saline (PBS) followed by 4% paraformaldehyde. The brains were removed and placed in 4% paraformaldehyde over night. The brains were processed to paraffin and embedded. Ten serial 30-μm thick sections through the brain were obtained. Sections were subjected to primary antibody overnight at 4° C. (Aβ peptide antibody) in order to detect the amyloid deposits in the brain of the transgenic animals (Guo et al., J. Neurosci., 22:5900-5909 (2002)). Sections were washed in Tris-buffered saline (TBS) and secondary antibody was added and incubated for 1 hour at room temperature. After washing, the sections were incubated as instructed in the Vector ABC Elite kit (Vector Laboratories) and stained with […] (DAB). The reactions were stopped in water and cover-slipped after treatment with xylene. The amyloid area in each section was determined with a computer-assisted image analysis system, consisting of a Power Macintosh computer equipped with a Quick Capture frame grabber card, Hitachi CCD camera mounted on an Olympus microscope and camera stand. NIH Image Analysis Software, v. 1.55 was used. The images were captured and the total area of amyloid was determined over the ten sections. A single operator blinded to treatment status performed all measurements. Summing the amyloid volumes of the sections and dividing by the total number of sections was done to calculate the amyloid volume.
For quantitative analysis, an enzyme-linked immunosorbent assay (ELISA) was used to measure the levels of human total Aβ, Aβtotal and Aβ1-42 in the brains of APP transgenic mice (Biosource International, Camarillo, Calif.). Aβtotal and Aβ1-42 were extracted from mouse brains by guanidine hydrochloride and quantified as described by the manufacturer. […]

T3 sequence (P05067 672-711): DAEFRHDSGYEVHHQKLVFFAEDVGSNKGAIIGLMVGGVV

B1: TTP-3000: three domain RAGE fusion protein: human RAGE V domain and interdomain linker (to residue 136) fused to CH2 and CH3 domains of human IgG1 (protein)
chain: QNITARIGEPLVLKCKGAPKKPPQRLEWKLNTGRTEAWKVLSPQGGGPWDSVARVLPNGSLFLPAVGIQDEGIFRCQAMNRNGKETKSNYRVRVYQIPGKPEIVDSASELTAGPSVFLFPPKPKDTLMISRTPEVTCVVVDVSHEDPEVKFNWYVDGVEVHNAKTKPREEQYNSTYRVVSVLTVLHQDWLNGKEYKCKVSNKALPAPIEKTISKAKGQPREPQVYTLPPSRDELTKNQVSLTCLVKGFYPSDIAVEWESNGQPENNYKTTPPVLDSDGSFFLYSKLTVDKSRWQQGNVFSCSVMHEALHNHYTQKSLSLSPGK
Question: Which “binding to immobilized S100b (absorbance at 405 nm)” value (S100b (S100)) does the source give for B1 here?
Answer: specifically interact

Question: What about the “binding to immobilized amphoterin (absorbance at 405 nm)” value (amphoterin (Ampho)) of the same molecule?
Answer: specifically interact

Question: And the “day of graft loss, Mean” value [1]?
Answer: 38.43 days

Question: And the “day of graft loss, each animal” value ([1]; blood glucose exceeded 250 mg/dl)?
Answer: 46 days and 42 days and 41 days and 34 days and 32 days and 30 days and 44 days

Question: What about the “binding to immobilized amyloid-beta (absorbance at 405 nm)” value [2] of the same molecule?
Answer: specifically interact

B2: mouse sRAGE: mouse soluble RAGE used as comparator in the AD mouse model (protein, UniProt Q62151 23-340, looked up)
extracellular domain: GQNITARIGEPLVLSCKGAPKKPPQQLEWKLNTGRTEAWKVLSPQGGPWDSVARILPNGSLLLPATGIVDEGTFRCRATNRRGKEVKSNYRVRVYQIPGKPEIVDPASELTASVPNKVGTCVSEGSYPAGTLSWHLDGKLLIPDGKETLVKEETRRHPETGLFTLRSELTVIPTQGGTHPTFSCSFSLGLPRRRPLNTAPIQLRVREPGPPEGIQLLVEPEGGIVAPGGTVTLTCAISAQPPPQVHWIKDGAPLPLAPSPVLLLPEVGHEDEGTYSCVATHPSHGPQESPPVSIRVTETGDEGPAEGSVGESGLGTLA
modifications: extracellular domain
notes: mouse soluble RAGE used as comparator in the AD mouse model
Question: Which results are given for B2?
Answer: Aβ plaques in the brain ([3]; FIG. 14A): fewer Aβ plaques; cognitive dysfunction (Morris water maze) ([3]; FIG. 14B): less cognitive dysfunction
